target: HLA-A*02:01; assay: IEDB peptide-MHC binding, purified MHC/competitive/radioactivity; filed as Kd, often an IC50 or EC50 that approximates it; ≥ and ≤ were set here for values at or beyond the usual limits of such assays; conditions: source organism: Mycobacterium tuberculosis

Sequence	Kd [nM]
RMSRVTTFTV	75.5
LLGSFELTGI	26
LLACAVIHA	250
LLATVFKLTA	250
GLVDFVKHI	217
GLYYLTTEV	20.8
RIANGMGATV	385
AMKADIQHV	167
VLLLDVTPL	50
YLYVHSPAL	5.4
MALLRLPLV	52.6
KLTADGVLTA	200
FLMPVEDVFI	3.3
LLFLGVVFL	50
LMLPGMNGI	238
SLLEIGEGV	98
AIAWGAWGEV	312
VLLEDGGVEV	333
LMIGTAAAVV	54
RLLDDTPEV	96.1
MLASTLTDA	250
SLLEIGEGVV	50
MLGNAPSVV	227
AIYHPQQFV	313

Sequence	Kd [nM]
MLQDMAILT	167
MTYAAPLFV	13.8
ALVLLMLPVV	6.8
LLFRFMRPLI	83.3
YTYKWETFL	29
YLLALRYLA	10
LALVLLMLPV	333
MLATDLSLRV	109
ALLSDWLPA	94.3
FLTCDANLAV	104
AVHDTLFYCV	104
ALYLLDGLRA	263
YLSQIAVLL	12.1
RLMIGTAAA	227
TVLRFVPPL	76.9
SLAGFVRML	111
LLCCSGVATA	152
AMALLRLPLV	5.1
ILSSLGLPV	50
LLWQDPVPA	45.4
LLPLGYPFV	333
SLYFGGICVI	167
GIVSGILLSI	152
AMLQDMAIL	98

Sequence	Kd [nM]
GLYGAQYDV	250
WLLIDTSNA	357
FMSLAGFVRM	116
WMAETTLGRV	294
ATYDKGILTV	156
GLFLTTEAVV	238
LLFRFMRPL	35.7
ILLSIARVV	454
FLLADERVRV	116
GLGGLGLFFA	89.2
LLLETSWEAI	106
FVVALIPLV	7.6
LLLDVTPLSL	17
YLSEGDMAA	294
RMPAVTDLV	125
FLLPDAQSI	385
LLAAGVADPV	217
KIFMLVTAVV	417
GLAGTVLRFV	109
RLQPQVGWEV	178
GLMTAVYLV	8.9
GLYRQWALA	185
SLYFGGICV	10.6

From the Immune Epitope Database (IEDB)
